In the DeepSol protein solubility set:

test: soluble on expression in E. coli; label from the status in PepcDB or PDB records

Sequence | soluble on expression in E. coli
MGSDKIHHHHHHMLDLKQIGASESRQLKQAHDRGQLSHAYLLLSSDEVEALNTAYWLICYVNCTGEKKPDGTCPACRRILAGNHPDVFLIDTEENKQSIAIDQIRPLKQELAKSPLEGDRRYFVINHAQKLTLPAANALLNLLEEPAAPVVTFLIANNGGQILPTIKSRTQIINFSQQAASSKDRLLLANGMSQEEVDQVKSSQEVDQAVKFFYQELREHDSLAIVSAHQLAGLVKKQKQGTKAWEKYVWILLKKWGEKDLEKGDCQEAANFLADLMRVDQMRQSNVGFLNNLDYLALKWQQ | not soluble
MARKSKGSRSSTRAVKQTDHFQVDVKLQSRPDHVRAPRANNENVNYTPVKEAKIQKILDHQLYNTHYVEYQVEMSDGTEEMLTEFDFDNKKTQKMLAEYKFKVTELEDDGSKEYVVEKIVAHRYPNDRLNQPLYLVMWRGFPDPVSNTEMWGEELENCQELLDAYNEEHDIDLSKTVMNKPPKKSKHQDTSDDSEESEDEEEKSPRKRSSKKRRAASVSDSDSDSDSDFDKKKWKKNKAKRSKRDDSSDDDSEMERRRKKSKKSKKSKKFKKSEKRKRAVNDSSSDDEDEEEKPEKRSKKSKKAVIDSSSEDEEEEKSSKKRSKKSKKESDEEQQASDSEEEVVEVKKNSKSPKKTPKKTAVKEESEESSGDEEEEVVKKKKSSKINKRKAKESSSDEEEEVEESPKKKTKSPRKSSKKSAAKEESEEESSDNEEEEEVDYSPKKKVKSPKKSSKKPAAKVESEEPSDNEEEEEEVEESPIKKDKTPRKYSRKSAAKVESTESSGNEEEEEVEESPKKKGKTPRKSSKKSAAVEESDNEEEDVEESPKKRTSPRKSSKKRAAKEESEESSDNEVEEVEDSPKKNDKTLRKSPRKPAAKVESEESFGNEEEEEVEESPKKKGKTPRKSSKKSAAKEESEESSDDEEEEQAEETNGSHTESPTKSKTDESDNSTSSDEDDE | not soluble
MKEDKKVLHVANMTNGLIVYPDYDYIVYFPSSYTAAGTPLYFPEFAVPIDLIKALLEEKKVIMYDATVHENKELTDAFLKGVPTFLMALNRAIHGTKGLFEKLEKGYKVCPWQTPDIVQHAVYRLPKHYYKFLKKCVKLFAPEKRGKLWISIPENVELVVEKIDRRLNDNYEEIAKMIKEKKSIHTYRV | not soluble
MENKEKIFNAQHPLSNVNARSITYRSGGKSPKSPRRVDEENKTDEELGDALGISHRCDECDEMMKFETWVERQDAILECGHGYCKKCIPNIKKDAHTLTKCPVVAVKCRIPNWYQTGQAAKPSHRKSEAARKEYSTKAKLWNFEYKGRPLVVSLRRDATYGDLETSLSMLLNIDLKTNMILIHLPHSYNGADVNYFMKADDSLTNGPYEKDTKLSHLRHPKIAALSLEVTEKKTPSSETPSKENPKSPGPLDSNK | not soluble
MGSDKIHHHHHHENLYFQGMARTAEEQANHDLVIEMYNKVLIAMDSSAVDRYIAPGYVQHSSLAEPSVEALKGFLDRVRAESPDARQTIHRSFVDGDHVITHTHVERWPGDAGLAVVDIFRVEGGMIVEHWDVIQDVPANPVNPNSMF | soluble
MILVIDVGNTNTVFGVYDGKKLLNHWRMETSKGKTSDEYGMFIVSLLSYEKIDVGKIEAVVIASVVPPIMYSLEHAIRKYFKLEPMVVGPGIKTGINIKYENPREVGADRIINAVAALELYGGPLIIVDFGTATTFCAVSSKGEYLGGVICPGIKISAEALFQKTAKLPKIDLVKPETVIGRNTVSSMQSGIIYGYVGEVDYIVRRMKKEMKEDNIKVIATGGLARLIASESETIDEINGLLTLEGLRIIYERNK | soluble
MGHHHHHHSHMDSTTVNYFALFEVISHSFVRKLAPNEFPHKLYIQNYTSAVPGTCLTIRKWLFTTEEEILLNDNDLAVTYFFHQAVDDVKKGYIKAEEKSYQLQKLYEQRKMVMYLNMLRTCEGYNEIIFPHCACDSRRKGHVITAISITHFKLHACTEEGQLENQVIAFEWDEMQRWDTDEEGMAFCFEYARGEKKPRWVKIFTPYFNYMHECFERVFCELKWRKEEY | not soluble
SEMIGGDDTDTEMYGALVTAQSLRLRHLHHCRENQCTSVLVKYIQAPVHLVWSLVRRFDQPQKYKPFISRCTVNGDPEIGCLREVNVKSGLPATTSTERLEQLDDEEHILGINIIGGDHRLKNYSSILTVHPEMIDGRSGTMVMESFVVDVPQGNTKDDTCYFVESLIKCNLKSLACVSERLAAQDITNSIATFCNASNGYREKNHTETNL | soluble
MEFTLTREKQMIKEMVRDFAEKEIAPKAVYYDKTAEFPYETFQKMGELGLLGIPFPEEYGGSGGDTVSYALAVEEIGRACGGTGLSYAATISLGASPIYYFGTEEQKQKYLVPMASGKTLGAFGLTEPNAGSDAGGTQTKAILDGDEYVISGEKCWITNAEYANTIIVTAVNGIEENGRKRISAFIVPTTSEGLTISSPYDKMGVRASNTCEIVLDGVRVPKENILGDVNKGFKQFLYTLDGGRISIAVLAVGIAQSAFERALQYAKERQQFGKAISNFQAIQFKLADMATEVELARNLVHKAAWLKDNDKPFGKEAAMAKLFASEAASRIANQAVQIHGGYGYMREYEVERHIRDAKLLEIGEGTSEIQRLVIARHLGCR | not soluble
MSLMYPLVLDLAADGIPVTVTCRVLGFSTQAFYKWRKAPLTQRDWDDAHLINAARDIHADDPAFGYRFIADELPGRGITAGENRVARLCSQERIWSIFAKKRGLNRRSGPPVHDDLVERQFSAQAANQVWLTDITEHRTNEGKLYLCAIKDVYSNRIVGYSMDSRMKSSLAVAALDHAVALRSPVATIVHSDRGSQFRSRKFVRALSRNGLQGSMGRVGACGDNAAMESFFALLQRNVLDRKRWSTRAELRLAIVTWIERTYHRRRRQRALGRLTPIEFELLRTSVATAAEGHHHHHH | not soluble
MGSDKIHHHHHHMLITAYRERQTRHREKIQRLLNFLKEETYSDFKILMLLFGFRDHKSLYSLLSKVEGMGLIKKHVLVSRTMKISLWGITSDGLAVVLTPDDAIFPARFEPSKITGWTLEHHLDNQVARITLEQKGASGWVNGDRTTFLSRYEVSHRPDGLITLPGGTVIAIETERRLKTKARYQSILASHLLARTRKNWIYVFYIVPDPQKKRGLERLFEGIRHVIINHQHIPLETRHRNVFRIYTLDELQRLNLGHCL | not soluble
MGSDKIHHHHHHMENYQLRIAHLYGDLMNTYGDYGNVIAIKYYAKQIQVETDYHLISLGDSFKADDYDFVIFGGGQDYEESVTAKDLPSKSDEIKKYIENNDSLLAVCGGFQLLGTTMEFANGKIINGIGAMSHHTVNLNSSELFDNMRGKRLIGNIQIKNNESGETYHGFENHQGRTFLGKGEKALGTVVSGNGNNGDDKTEGVIYKQVYGTYFHGPILTRNGNLAKRILKNALLKRYPDIDWQAKLDGIPTESF | not soluble
MKLSAYHKARGGLVEWWNPKNHYDLVYKSRVFTDTYSKDTIAVTNADAVILGGTGYDLGENLPDAVEHTRPDAALYPQFSDTAYGFLSRGCPRNCGFCIVSGKEGRRSRKVADLSEFWDGQKEIKLLDANLLACPDHEALILQLAESRAWVDFSQGLDIRLITPDNVALLNRVRTRAVHFAWDNPDEDLTGYFRRFLELTAIKSDRKRRVYVLTNYGSTHEQDLYRVETLRGMGYDPYVMVYDRPAAPKITRQLQRWVNNKRIFYTVKNFADYIPNRTGGIT | not soluble
MEGGGAKDGSAAAAQTRGSGDDGSHKPLPPCCLKAKAAAAESEAKCHATVVSGWFTEPRSHSGKTSKVQYFNNPMWPGEAHSLKVENILYQGKSPYQEILVFESSTYGNVLVLDGIVQLTEKDECAYQEMVTHLPLCSIPSPKSVLVVGGGDGGVLREIARHASVENIDICEIDQLVIDVCKDFFPQLSVGFKDPRVQLHVGDAVDFLRNAPEGKYDAIIVDSSDPIGPAQELVEKPFFQTIARALKPGGVLCNQAESMWLHTHLIQDMLSICRETFKGAVHYAWTSVPTYPSGVIGFLLCAKEGPAVNFLSPVNPIEKLEGAMEAGREIRFYNSEVHRAAFVLPTFVRRELESHNTCAEKDKSETKPVAKPKKMKIMPNSAIPTAS | not soluble
MSAEQVWQGNFEQLCLFHNLQGRWPGCREGALGRWCTIQRRDYRKGNMSDERKAQLERIGFPLALEHHHHHH | not soluble
MGSDKIHHHHHHMLKDKMIAKGAKYIQSIYQDPFIQGIIKGRLDHDVICHYLQADNIYLGKFADIYALCLAKSDNLRDKQFFLEQIDFTLNRELADGEGPHQALAAYTNRSYQDIIEKGVWYPSADHYIKHMYFHFYENGIAGALAAMSPCPWIYHQLAKKIIEENQFLNGNPFNNWITFYANDTVEELMENYFRMMDYYAQNLSKEKQADLVDAFVKSCQHERRFFQMAINQEKWED | not soluble
MGEVLHIEDALNEKGVYVSTTSGVSMYPMLRNRRDTIIVKPPTAPLKKYDVPLYRRGDDYVLHRIIGKDDRGYIICGDNCINKEYGITENQIIGVLVGFYRDGNEVNMEGVGYKLYSRAWVFLHPLICAFKKIKMKAGKVKRLWHSK | not soluble
MSKSIYEQYLQAKADNPGKYARDLATLMGISEAELTHSRVSHDAKRLKGDARALLAALEAVGEVKAITRNTYAVHEQMGRYENQHLNGHAGLILNPRNLDLRLFLNQWASAFTLTEETRHGVRHSIQFFDHQGDALHKVYVTEQTDMPAWEALLAQFITTENPELQLEPLSAPEVTEPTATDEAVDAEWRAMTDVHQFFQLLKRNNLTRQQAFRAVGNDLAYQVDNSSLTQLLNIAQQEQNEIMIFVGNRGCVQIFTGMIEKVTPHQDWINVFNQRFTLHLIETTIAESWITRKPTKDGFVTSLELFAADGTQIAQLYGQRTEGQPEQTQWRDQIARLNNKDIAA | soluble
MGSDKIHHHHHHMRSADSSPAYSPIGSLSSSHSFDSIPDQRMNKSLLSLACLILCGMPAIAQQTGPAERSGEPSLAERVFGLEQKQKKLKVYLGIQSFYDQPLVDDESHIGHFKVQELRMSAHGELNRHLSFDWRQRLNRAADGTSFADNLSNAIDIAGVDWHPNDKVSFFFGRQYARFGGIEYDMNPVEIYQYSDLVDYMTCYTSGVNFAWNFHPEQQLQLQVLNAYNNRFADRYHVTPDVATATSYPLLYSAQWNGTLLGGALHMRYAVSMAHQAQERNMWYFTAGNLFNPGKRINGYLDLTYSIEGLDDKGIMTARYGKGKTLTDVKYYALVSKWNFRIFDQVNLFLKGMYENGYAPAQYGESSHTRHSYGYMGGVEYYPTETNFRLFVTYIGRHYRYSATETESTNALRAGLIYQIPFL | not soluble
MAHHHHHHMDNLFYYMIIQNDRIQPIIVRQPQTVIIHSQPKLPITLDLPPQNIILKNEDPQPIIVRQSNPNIIIEKSQNDFYNHPNFHIGLHDKVNSMSDINNTNIKEQPIKDNMIEDMQNINNADTQFYYNNQNVINENNVLPTHYSYLNNGVFNKEHNYDPYNFTLYSNK | not soluble
MSLSKKSILLLCCSLCFISATKAVTPVRNVRNSQVNSKAKTERTKPSDSVRYISNMIADRLEFRNKISSEKEVRKAEYENRLAMEALNYPAIDLYGEDSWSEYVNPFVGAGTDVEIPNSYDIDCSSFVMPVEDKQVTSQFGYRRRFGRMHYGIDLSVNRGDTIRAAFDGKVRVRSYEARGYGYYIVLRHPNGLETVYGHMSRQLVDENQIVRAGQPIGLGGSTGRSTGPHLHFETRFMGIPINPSTIIDFDNGVPLRDIYTFKRGSNSRYAKASKTSSRYAKKGKKGRQASSPMTYRIKKGDTLETIAKRHGTSVQKLCATNGIGKSKILTPGKALRIKEGHHHHHH | soluble
MPTISRSALVMYSVDQMYQLINDIPAYPKFLPDCNDSKVIDQDEQSVTAALLVSKGGLSKWFTTKNTLISNEKIHLSLVDGPFKKLEGYWLLTPLSDEACKVSLELEYEFSNKLVSLAFGKVFGHFSNSLVQVFTQRAKEIYGVNVLEHHHHHH | soluble
